Measured values reported in publication PMC3685266.

Experiments:
SecY_(268Fl)EG (E. coli) [1] = target: SecY_(268Fl)EG (E. coli) (UniProt P0AGA2); test: other fluorescence titration; fluorescence quench of 5 nM SecY_(268Fl)EG, 1 mM p[NH]ppA, 20 mM Tris/HCl pH 8, 130 mM NaCl, 10% glycerol, 2 mM MgCl2, 0.03% C12E9; SecA titrated 0-1 μM; no DTT; one-site fit with linear phase
SecY_(268Fl)EG (E. coli) [2] = target: SecY_(268Fl)EG (E. coli) (UniProt P0AGA2); test: other fluorescence titration; fluorescence quench of 5 nM SecY_(268Fl)EG, 1 mM p[NH]ppA, 20 mM Tris/HCl pH 8, 130 mM NaCl, 10% glycerol, 2 mM MgCl2, 0.03% C12E9; SecA titrated 0-1 μM; with 10 mM DTT; one-site fit with linear phase
[3] = target: SecA_(D337C/E806C), uncross-linked, clamp released from the open state with 10 mM DTT (E. coli) (UniProt P10408); test: SEC; Superose 6 10/300 GL, 20 mM Tris/HCl pH 7.5, 100 mM KCl, with or without 10 mM DTT; column calibrated with gel-filtration standards
[4] = target: SecA_(D337C/K482C), uncross-linked, clamp released from the closed state with 10 mM DTT (E. coli) (UniProt P10408); test: as above
[5] = target: SecA_(Δcys), SecA without cysteine residues (E. coli) (UniProt P10408); test: as above
[6] = target: SecA_(D337C/E806C), released with 10 mM DTT (E. coli) (UniProt P10408); test: steady-state ATPase activity titration; 0.15 μM SecA in TKM buffer, 1 mM ATP, increasing detergent-solubilised SecYEG, in the presence of 40 μM cardiolipin (CL); with 10 mM DTT; apparent Kd from a ligand-binding fit
[7] = target: SecA_(D337C/K482C), released with 10 mM DTT (E. coli) (UniProt P10408); test: as above
SecA_(Δcys) (E. coli) [8] = target: SecA_(Δcys) (E. coli) (UniProt P10408); test: as above
SecA_(Δcys) (E. coli) [9] = target: SecA_(Δcys) (E. coli) (UniProt P10408); test: steady-state ATPase activity titration; 0.15 μM SecA in TKM buffer, 1 mM ATP, increasing detergent-solubilised SecYEG, in the presence of 40 μM cardiolipin (CL); no DTT; apparent Kd from a ligand-binding fit
[10] = target: SecA_(D337C/E806C), released with 10 mM DTT (E. coli) (UniProt P10408); test: steady-state ATPase activity titration; 80 nM SecA in TKM buffer, 1 mM ATP, increasing vesicles reconstituted with purified SecYEG; in the presence of 0.6 μM proOmpA_(Δcys); with 10 mM DTT; Kd from a ligand-binding fit
[11] = target: SecA_(D337C/K482C), released with 10 mM DTT (E. coli) (UniProt P10408); test: as above
SecA_(Δcys) (E. coli) [12] = target: SecA_(Δcys) (E. coli) (UniProt P10408); test: as above
[13] = target: SecA_(D337C/E806C), cross-linked (clamp open) (E. coli) (UniProt P10408); test: steady-state ATPase activity titration; 80 nM SecA in TKM buffer, 1 mM ATP, increasing vesicles reconstituted with purified SecYEG; without proOmpA; no DTT; Kd from a ligand-binding fit
[14] = target: SecA_(D337C/K482C), cross-linked (clamp closed) (E. coli) (UniProt P10408); test: as above
SecA_(Δcys) (E. coli) [15] = target: SecA_(Δcys) (E. coli) (UniProt P10408); test: as above
[16] = target: SecA_(D337C/E806C), cross-linked (clamp open) (E. coli) (UniProt P10408); test: steady-state ATPase activity titration; 0.15 μM SecA in TKM buffer (pH 7.5), 1 mM ATP, 0.03% C12E9, 25°C, increasing detergent-solubilised SecYEG; no DTT; apparent Kd from a ligand-binding fit
[17] = target: SecA_(D337C/K482C), cross-linked (clamp closed) (E. coli) (UniProt P10408); test: as above
SecA_(Δcys) (E. coli) [18] = target: SecA_(Δcys) (E. coli) (UniProt P10408); test: as above
[19] = target: SecA_(D337C/E806C), released with 10 mM DTT (E. coli) (UniProt P10408); test: steady-state ATPase activity titration; 80 nM SecA in TKM buffer, 1 mM ATP, increasing vesicles reconstituted with purified SecYEG; without proOmpA; with 10 mM DTT; Kd from a ligand-binding fit
[20] = target: SecA_(D337C/K482C), released with 10 mM DTT (E. coli) (UniProt P10408); test: as above
SecA_(Δcys) (E. coli) [21] = target: SecA_(Δcys) (E. coli) (UniProt P10408); test: as above
[22] = target: SecA_(D337C/E806C), released with 10 mM DTT (E. coli) (UniProt P10408); test: steady-state ATPase activity titration; 0.15 μM SecA in TKM buffer (pH 7.5), 1 mM ATP, 0.03% C12E9, 25°C, increasing detergent-solubilised SecYEG; with 10 mM DTT; apparent Kd from a ligand-binding fit
[23] = target: SecA_(D337C/K482C), released with 10 mM DTT (E. coli) (UniProt P10408); test: as above
SecA_(Δcys) (E. coli) [24] = target: SecA_(Δcys) (E. coli) (UniProt P10408); test: as above
[25] = target: SecA_(D337C/E806C), cross-linked (clamp open) (E. coli) (UniProt P10408); test: steady-state ATPase activity titration; 80 nM SecA in TKM buffer, 1 mM ATP, increasing vesicles reconstituted with purified SecYEG; in the presence of 0.6 μM proOmpA_(Δcys); no DTT; Kd from a ligand-binding fit
[26] = target: SecA_(D337C/K482C), cross-linked (clamp closed) (E. coli) (UniProt P10408); test: as above
SecA_(Δcys) (E. coli) [27] = target: SecA_(Δcys) (E. coli) (UniProt P10408); test: as above
[28] = target: preformed SecA_(Δcys)–SecYEG membrane-bound complex (E. coli) (UniProt P10408); test: steady-state ATPase activity titration; 80 nM SecA with 1.08 μM SecYEG reconstituted into E. coli polar lipids in TKM buffer, 1 mM ATP, increasing purified proOmpA_(Δcys); no DTT; Kd from a ligand-binding fit
[29] = target: preformed SecA_(D337C/K482C) (released with DTT)–SecYEG membrane-bound complex (E. coli) (UniProt P10408); test: steady-state ATPase activity titration; 80 nM SecA with 1.08 μM SecYEG reconstituted into E. coli polar lipids in TKM buffer, 1 mM ATP, increasing purified proOmpA_(Δcys); with 10 mM DTT; Kd from a ligand-binding fit
[30] = target: preformed SecA_(D337C/E806C) (released with DTT)–SecYEG membrane-bound complex (E. coli) (UniProt P10408); test: as above
[31] = target: preformed SecA_(Δcys)–SecYEG membrane-bound complex (E. coli) (UniProt P10408); test: as above

SecA_(D337C/E806C), cross-linked (clamp open) (from UniProt P10408 1-901) (enzyme)
Kd (SecY_(268Fl)EG (E. coli) [1]): 60.9 nM

SecA_(D337C/E806C), released with 10 mM DTT (from UniProt P10408 1-901) (enzyme)
Kd (SecY_(268Fl)EG (E. coli) [2]): 59.5 nM

SecA_(D337C/E806C), uncross-linked, clamp released from the open state with 10 mM DTT (from UniProt P10408 1-901) (enzyme)
stoichiometry N [3]: 2

SecA_(D337C/K482C), cross-linked (clamp closed) (from UniProt P10408 1-901) (enzyme)
Kd (SecY_(268Fl)EG (E. coli) [1]): 28.6 nM

SecA_(D337C/K482C), released with 10 mM DTT (from UniProt P10408 1-901) (enzyme)
Kd (SecY_(268Fl)EG (E. coli) [2]): 118 nM

SecA_(D337C/K482C), uncross-linked, clamp released from the closed state with 10 mM DTT (from UniProt P10408 1-901) (enzyme)
stoichiometry N [4]: 2

SecA_(Δcys) (from UniProt P10408 1-901) (enzyme)
Kd (SecY_(268Fl)EG (E. coli) [2]): 20.6 nM | Kd (SecY_(268Fl)EG (E. coli) [1]): 18.4 nM

SecA_(Δcys), SecA without cysteine residues (from UniProt P10408 1-901) (enzyme)
stoichiometry N [5]: 2

SecYEG (from UniProt P0AGA2 1-443; P0AG96 1-127; P0AG99 1-110) (complex)
Kd [6]: 6.5 nM | Kd [7]: 8.8 nM | Kd (SecA_(Δcys) (E. coli) [8]): 5.6 nM | Kd (SecA_(Δcys) (E. coli) [9]): 3.7 nM | Kd [10]: 130 nM | Kd [11]: 130 nM | Kd (SecA_(Δcys) (E. coli) [12]): 190 nM | Kd [13]: 650 nM | Kd [14]: 29 nM | Kd (SecA_(Δcys) (E. coli) [15]): 1130 nM | Kd [16]: 5900 nM | Kd [17]: 15 nM | Kd (SecA_(Δcys) (E. coli) [18]): 7600 nM | Kd [19]: 650 nM | Kd [20]: 340 nM | Kd (SecA_(Δcys) (E. coli) [21]): 1110 nM | Kd [22]: 6000 nM | Kd [23]: 6300 nM | Kd (SecA_(Δcys) (E. coli) [24]): 7800 nM | Kd [25]: 170 nM | Kd [26]: 25 nM | Kd (SecA_(Δcys) (E. coli) [27]): 260 nM

proOmpA_(Δcys) (from UniProt P0A910 22-346) (natural protein)
Kd [28]: 500 nM | Kd [29]: 240 nM | Kd [30]: 350 nM | Kd [31]: 780 nM
